Measured values from US20240376170A1 (BRIGHT PEAK THERAPEUTICS, published 2024).
Bridges are numbered along the chain shown (N, C = ends). Primed or numbered codes have the meaning given here. [ ]: non-standard residue; d: D form. Ygp = O-(8x polyethylene glycol-amino)-tyrosine (Tyr, amino-capped PEG8); Yn3 = O-(9x polyethylene glycol-azido)-tyrosine (Tyr, azide-capped PEG9); Ygp(3) = O-(PEG8-amino)-tyrosine; Yn3(3) = O-(PEG9-azido)-tyrosine; PEG4′ = 4x polyethylene glycol; PEG9′ = 9x polyethylene glycol; hSer = N[C@@H](CCO)C(=O)O; Nle = CCCC[C@H](N)C(=O)O

T1: Avi-tag Fc with human IL-2R beta and IL-2R gamma attached (Acrobiosystems ACRB-ILG-H82F3-25UG) (human, UniProt P14784 27-239; P31785 23-262)
T1 construct: Bought; attached to the SAX2 biosensor; also called CD122 CD132; IL-2R βγ; not shown: Fc and Avi-tag
T1 sequence (looked up) 1: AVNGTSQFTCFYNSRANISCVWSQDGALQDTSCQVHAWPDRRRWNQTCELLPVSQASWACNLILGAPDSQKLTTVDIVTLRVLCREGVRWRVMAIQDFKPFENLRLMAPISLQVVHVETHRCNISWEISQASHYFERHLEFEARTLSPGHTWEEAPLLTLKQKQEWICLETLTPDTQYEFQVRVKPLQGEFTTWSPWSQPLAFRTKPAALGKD
T1 sequence (looked up) 2: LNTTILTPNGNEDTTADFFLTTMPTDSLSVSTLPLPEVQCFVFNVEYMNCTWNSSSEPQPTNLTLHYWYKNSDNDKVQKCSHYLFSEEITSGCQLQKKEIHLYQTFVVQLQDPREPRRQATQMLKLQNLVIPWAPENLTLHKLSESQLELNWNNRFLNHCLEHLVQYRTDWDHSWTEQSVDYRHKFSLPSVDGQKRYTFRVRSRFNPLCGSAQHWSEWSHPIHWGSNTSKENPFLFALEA

T2: recombinant human IL-2 receptor beta containing a His-tag and Avi-tag (human, UniProt P14784 27-239)
T2 construct: Bought; attached to the SAX2 biosensor; also called CD122; IL-2R β; not shown: His-tag and Avi-tag
T2 sequence (looked up): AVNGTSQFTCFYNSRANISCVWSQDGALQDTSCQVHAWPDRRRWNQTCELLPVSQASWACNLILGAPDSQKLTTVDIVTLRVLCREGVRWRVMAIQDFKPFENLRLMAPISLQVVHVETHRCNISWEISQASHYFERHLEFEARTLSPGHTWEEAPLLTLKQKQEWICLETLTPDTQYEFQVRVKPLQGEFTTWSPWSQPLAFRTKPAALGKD

T3: IL-2 receptor βγ complex on human T cells (human, UniProt P14784 27-551; P31785 23-369)
T3 sequence (looked up) 1: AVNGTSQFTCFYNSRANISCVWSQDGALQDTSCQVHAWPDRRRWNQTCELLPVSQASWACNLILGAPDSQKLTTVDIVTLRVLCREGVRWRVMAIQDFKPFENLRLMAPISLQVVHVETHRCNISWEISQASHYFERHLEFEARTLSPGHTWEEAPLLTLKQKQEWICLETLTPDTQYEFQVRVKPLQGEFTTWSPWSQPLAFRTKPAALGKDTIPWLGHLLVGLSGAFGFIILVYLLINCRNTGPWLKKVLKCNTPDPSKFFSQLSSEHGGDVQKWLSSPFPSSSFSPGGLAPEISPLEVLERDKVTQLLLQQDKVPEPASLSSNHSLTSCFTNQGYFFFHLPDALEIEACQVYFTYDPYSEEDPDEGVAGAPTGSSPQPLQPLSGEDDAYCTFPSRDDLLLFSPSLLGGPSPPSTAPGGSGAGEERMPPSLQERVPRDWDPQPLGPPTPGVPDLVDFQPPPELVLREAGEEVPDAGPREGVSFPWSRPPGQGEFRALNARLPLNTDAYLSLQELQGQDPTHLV
T3 sequence (looked up) 2: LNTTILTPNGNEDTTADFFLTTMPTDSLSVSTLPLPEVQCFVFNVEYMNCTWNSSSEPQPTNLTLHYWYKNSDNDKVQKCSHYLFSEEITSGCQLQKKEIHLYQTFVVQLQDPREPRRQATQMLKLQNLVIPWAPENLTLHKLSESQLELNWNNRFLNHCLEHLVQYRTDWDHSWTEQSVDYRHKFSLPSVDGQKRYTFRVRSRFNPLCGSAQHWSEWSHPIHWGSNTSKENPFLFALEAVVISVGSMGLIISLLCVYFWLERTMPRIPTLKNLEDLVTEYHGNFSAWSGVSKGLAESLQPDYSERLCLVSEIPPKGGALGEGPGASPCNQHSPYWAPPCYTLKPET

T4: IL-2Rβγ on HEK-Blue IL-2Rβγ reporter cells (InvivoGen) (UniProt P14784 27-551; P31785 23-369, limits assumed)
T4 sequence (looked up) 1: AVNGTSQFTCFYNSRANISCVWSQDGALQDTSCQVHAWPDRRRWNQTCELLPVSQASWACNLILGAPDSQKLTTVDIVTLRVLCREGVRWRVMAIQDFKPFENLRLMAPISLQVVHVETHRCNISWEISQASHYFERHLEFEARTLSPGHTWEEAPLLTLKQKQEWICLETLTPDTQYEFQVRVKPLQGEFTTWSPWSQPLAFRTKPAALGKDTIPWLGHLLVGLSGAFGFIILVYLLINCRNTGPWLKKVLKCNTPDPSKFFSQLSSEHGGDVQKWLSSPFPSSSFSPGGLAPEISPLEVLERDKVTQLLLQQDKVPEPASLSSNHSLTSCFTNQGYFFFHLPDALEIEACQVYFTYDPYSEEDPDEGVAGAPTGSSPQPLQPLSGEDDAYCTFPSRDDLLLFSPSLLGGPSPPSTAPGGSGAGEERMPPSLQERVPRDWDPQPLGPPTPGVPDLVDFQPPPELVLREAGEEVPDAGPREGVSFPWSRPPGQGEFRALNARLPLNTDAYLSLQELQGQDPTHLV
T4 sequence (looked up) 2: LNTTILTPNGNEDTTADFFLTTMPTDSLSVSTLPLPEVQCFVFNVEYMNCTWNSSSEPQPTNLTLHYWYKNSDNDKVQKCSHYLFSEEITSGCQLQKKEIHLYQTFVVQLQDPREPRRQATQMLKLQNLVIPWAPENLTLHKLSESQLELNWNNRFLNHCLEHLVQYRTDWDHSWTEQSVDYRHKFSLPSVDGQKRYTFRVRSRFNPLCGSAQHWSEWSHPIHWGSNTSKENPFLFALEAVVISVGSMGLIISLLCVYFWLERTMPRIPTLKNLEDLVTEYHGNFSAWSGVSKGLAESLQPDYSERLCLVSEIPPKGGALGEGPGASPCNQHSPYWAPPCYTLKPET


Key:
[1] = molecular target: T1, Avi-tag Fc with human IL-2R beta and …; assay: BLI (Octet R8), receptor on SAX2 sensor
Protocol: (§1) Bilayer interferometry (BLI) assays were used to measure the binding constants between activatable IL-2 polypeptides (and activated versions thereof) to IL-2 receptor subunits or receptor complexes. BLI assays were conducted on an Octet® R8 instrument. Assay plates were 96 well, polypropylene, F-bottom (chimney well), black microplates (Greiner Bio-one, Cat. No: 655209). The biosensors were Octet® SAX2 (Sartorius, Cat. No: 18-5136). The assay buffer was 1X Kinetic Buffer (Sartorius, Cat. no: 18-5136) or Phosphate Buffered Saline (PBS) that contained 0.02% (v: v) Tween 20 (Polysorbate 20) and 0.1% (w/v) bovine serum albumin (BSA). The sensor was regenerated between measurements in 10 mM glycine pH 2.7 buffer.
(§2) Sensor attached receptors were either recombinant human IL-2 receptor beta containing a His-tag and Avi-tag™ (R&D Systems™) or an Avi-tag™ Fc with human IL-2R beta and IL-2R gamma attached (Acrobiosystems Cat. no: ACRB-ILG-H₈₂F3-25UG). Receptors were reconstituted from lyophilized powder to 500 μg/ml in PBS. Analytes were diluted in Kinetic buffer to 300 nM, then serially diluted to lower concentrations.

[2] = molecular target: T2, recombinant human IL-2 receptor beta …; assay: BLI (Octet R8), receptor on SAX2 sensor
Protocol: as §1, §2

[3] = molecular target: T3, IL-2 receptor βγ complex on human T …; assay: cell-based or functional assay
[4] = molecular target: T4, IL-2Rβγ on HEK-Blue IL-2Rβγ reporter …; assay: cell-based or functional assay

| Kd [1] [nM] | koff [1] [s⁻¹] | kon [1] [M⁻¹ s⁻¹] | Kd [2] [nM] | koff [2] [s⁻¹] | kon [2] [M⁻¹ s⁻¹] | Average EC50, pSTAT5 Assay (T cells), MMP2 cleaved molecule [3] [nM] | Average EC50, HEK-Blue IL-2R (CD122+, CD132+) Reporter Assay, intact molecule [4] [nM] | Average EC50, pSTAT5 Assay (T cells), intact molecule [3] [nM] | Binder |
| --- | --- | --- | --- | --- | --- | --- | --- | --- | --- |
| – | – | – | – | – | – | 0.45 | – | – | CMP-150, MMP2 cleaved (ligand, not fully specified; also: further groups not given here) APTSSSTKKTQLQLEHLLLDLK[Nle]ILNGINNYKNPKLTR[Nle]L[hSer][Yn3(3)]KF[Ygp(3)][Nle]PKKATELKHLQCLEEELKPLEEVL[hSer]LAQSKNFHLRPRDLISNINVIVLELKGSETTF[hSer]CEYADETATIVEFLNRWITFSQSIISTLT |
| 9.19 | 0.000786 | 85500 | 59.5 | 0.0122 | 206000 | – | 1.05 | – | CMP-319 (ligand, lactam N-33; ends not checked) RGRRVANLVGAPTSSSTKKTQLQLEHLLLDLQEILNGINNYKNPKLTR[Nle]L[hSer][Yn3]KF[Ygp][Nle]PKKATELKHLQCLEEELKPLEEVL[hSer]LAQSKNFHLRPRDLISNINVIVLELKGSETTF[hSer]CEYADETATIVEFLNRWITFSQSIISTLT |
| – | – | – | – | – | – | – | – | 3.86 | CMP-147 (ligand, also: further groups not given here) APTSSSTKKTQLKLEHLLLDLQ[Nle]ILNGINNYKNPKLTR[Nle]L[hSer][Yn3(3)]KF[Ygp(3)][Nle]PKKATELKHLQCLEEELKPLEEVL[hSer]LAQSKNFHLRPRDLISNINVIVLELKGSETTF[hSer]CEYADETATIVEFLNRWITFSQSIISTLT |
| – | – | – | – | – | – | 9.56 | – | – | CMP-149, MMP2 cleaved (ligand, also: MMP2-cleaved form, remnant not given here, Lys19 side chain attached moiety) APTSSSTKKTQLQLEHLLKDLQ[Nle]ILNGINNYKNPKLTR[Nle]L[hSer][Yn3(3)]KF[Ygp(3)][Nle]PKKATELKHLQCLEEELKPLEEVL[hSer]LAQSKNFHLRPRDLISNINVIVLELKGSETTF[hSer]CEYADETATIVEFLNRWITFSQSIISTLT |

Second part, the binder before the results:

| Binder | Kd [1] [nM] | koff [1] [s⁻¹] | kon [1] [M⁻¹ s⁻¹] | Kd [2] [nM] | koff [2] [s⁻¹] | kon [2] [M⁻¹ s⁻¹] | Average EC50, pSTAT5 Assay (T cells), MMP2 cleaved molecule [3] [nM] | Average EC50, HEK-Blue IL-2R (CD122+, CD132+) Reporter Assay, intact molecule [4] [nM] | Average EC50, pSTAT5 Assay (T cells), intact molecule [3] [nM] |
| --- | --- | --- | --- | --- | --- | --- | --- | --- | --- |
| CMP-136 (ligand, bridge N-37; not fully specified (bridges)) [PEG9′]PLGLAG[PEG9′]APTSSSTKKTQLQLEHLLLDLQ[Nle]ILNGIENYKNPKLTR[Nle]L[hSer][Yn3]KF[Ygp][Nle]PKKATELKHLQCLEEELKPLEEVL[hSer]LAQSKNFHLRPRDLISNINVIVLELKGSETTF[hSer]CEYADETATIVEFLNRWITFSQSIISTLT | 12.6 | 0.00498 | 396000 | 8.44 | 0.00767 | 909000 | – | – | – |
| CMP-138 (ligand, bridge (positions not given here); not fully specified (bridges); numbers in words are those of the source; also: Cys58-Cys105 disulfide expected from oxidative folding) [PEG4′]SGGPGPAGMKGLPGS[PEG4′]APTSSSTKKTQLQLEHLLLDLQ[Nle]ILNGIENYKNPKLTR[Nle]L[hSer][Yn3(3)]KF[Ygp(3)][Nle]PKKATELKHLQCLEEELKPLEEVL[hSer]LAQSKNFHLRPRDLISNINVIVLELKGSETTF[hSer]CEYADETATIVEFLNRWITFSQSIISTLT | 12.3 | 0.00284 | 232000 | 11.7 | 0.0105 | 898000 | – | – | – |
| CMP-146 (ligand, also: further groups not given here) APTSSSTKKTKLQLEHLLLDLQ[Nle]ILNGINNYKNPKLTR[Nle]L[hSer][Yn3(3)]KF[Ygp(3)][Nle]PKKATELKHLQCLEEELKPLEEVL[hSer]LAQSKNFHLRPRDLISNINVIVLELKGSETTF[hSer]CEYADETATIVEFLNRWITFSQSIISTLT | – | – | – | – | – | – | – | – | 4.29 |
